Measurements taken from patent publication US20260263563A1, “Method of Treatment of a Thoracolumbar Deformity in a Human Subject with Achondroplasia” (Ascendis Pharma Growth Disorders A/S, priority 2023, published 2026).
Read-outs that look alike come from different tables or passages of the source.

What was measured:
[1] = test system: prepubertal children with achondroplasia
Protocol: The study enrolled a minimum of 60 male and female prepubertal children with ACH aged 2 to 10 years old. The clinical trial is listed on www.clinicaltrials.gov under the ClinicalTrials.gov Identifier: NCT04085523. The objectives of the study were as follow:
This trial is a multicenter trial consisting of two treatment periods.
Participants should rest for at least 5 minutes before vital sign measurement and vital signs should be taken prior to any blood draws. The following vital signs should be measured: • Heart Rate (measured in beats per minute) • Blood Pressure (seated BP will be taken measured in mm Hg) • Temperature [measured in degrees Celsius (° C.) or Fahrenheit (° F.)]
All vital signs above must be measured at all visits. […] Orthostatic hypotension is defined as decrease in SBP of ≥20 mmHg (Stewart et al., Pediatrics, 141, 1-13, 2018). Accompanying tachycardia is defined as change of heart rate increment of ≥40 bpm and absolute orthostatic HR≥130 bpm (for ages 13 years and younger) (Singer et al., Journal of Pediatrics, 160, 222-226, 2012). Additionally, at Visit 1 and Visit 7 (in the Open-Label Extension Period), all vital signs must be monitored at 1 hour and 2 hours post injection of the study drug.

[2] = test system: prepubertal children with achondroplasia; remark: listed apart in the source
Protocol: SF-10™ Health Survey for Children is a 10-item parent-completed survey that covers a wide range of domains affecting a child's functional health and well-being (QualityMetric.com), with 5 items primarily related to physical health (PhS), and 5 items primarily related to psyhocosial health (PsS).
The survey was conducted at the following time points; baseline and week 52.
SF-10 assesses, inter alia, physical health (PhS). 5 items of the SF-10 were selected for the assessment of physical health parameters as follows: • Limited in things that take some energy • Limited in bending, lifting, stooping • Limited in kind of schoolwork/activities due to physical health • Subjects health in general • How much bodily pain or discomfort
For each response provided by a subject, a value is assigned and used to calculate the overall physical summary score in accordance with established guidelines (See The SF-10 Health Survey for Children User's Guide by QualityMetric). For reference, in accordance with the User's Guide, the SF-10 scale scores were centered so that a score of 50 corresponds to an average score in a 2006 sample (a combination of general population and supplemental disability and chronic condition samples).

[3] = test system: Fgfr3^Y367C/+ mice
From the text: The Y367C mutation was introduced into exon 9 of the mouse Fgfr3 gene along with a NEO cassette flanked by LoxP recombination sites. Due to the CMV promoter, the expression of the Fgfr3 Fgfr3^Y367C/+ is ubiquitous. Off-spring consisted of both Fgfr3^Y367C/+ and Fgfr3+/+ wild-type (WT) littermates.
Survival of pups was monitored daily during the 15 days of treatment and registered in treatment diaries.

[4] = 57 patients followed for up to 65 weeks
[5] = more than 2,000 injections administered

Navepegritide [Compound (1)]
Serious TEAE ([1]; 6 μg/kg/week (n = 10)): 1 (10.0) | Subject with Treatment-Emergent Adverse Events (TEAE) ([1]; 6 μg/kg/week (n = 10)): 9 (90.0) | Subjects with at Least One Treatment-Related TEAE ([1]; 6 μg/kg/week (n = 10)): 3 (30.0) | TEAE Grade 1 ([1]; 6 μg/kg/week (n = 10)): 9 (90.0) | TEAE Grade 2 ([1]; 6 μg/kg/week (n = 10)): 3 (30.0) | Treatment-Related TEAE ([1]; 6 μg/kg/week (n = 10)): 3 (30.0) | Treatment-related: Abdominal pain upper ([1]; 6 μg/kg/week (n = 10)): 0 | Treatment-related: Dizziness ([1]; 6 μg/kg/week (n = 10)): 0 | Treatment-related: Injection site reaction ([1]; 6 μg/kg/week (n = 10)): 2 (20.0) | Treatment-related: Overdose ([1]; 6 μg/kg/week (n = 10)): 0 | Treatment-related: Sleep terror ([1]; 6 μg/kg/week (n = 10)): 0 | Treatment-related: Urticaria ([1]; 6 μg/kg/week (n = 10)): 1 (10.0) | Achondroplasia-Related TEAE ([1]; 6 μg/kg/week (n = 10), placebo 9 (60.0)): 3 (30.0) | Achondroplasia-Related TEAE ([1]; 20 μg/kg/week (n = 11)): 4 (36.4) | Serious TEAE ([1]; 20 μg/kg/week (n = 11)): 0 | Subject with Treatment-Emergent Adverse Events (TEAE) ([1]; 20 μg/kg/week (n = 11)): 11 (100.0) | Subjects with at Least One Treatment-Related TEAE ([1]; 20 μg/kg/week (n = 11)): 2 (18.2) | TEAE Grade 1 ([1]; 20 μg/kg/week (n = 11)): 11 (100.0) | TEAE Grade 2 ([1]; 20 μg/kg/week (n = 11)): 3 (27.3) | Treatment-Related TEAE ([1]; 20 μg/kg/week (n = 11)): 2 (18.2) | Treatment-related: Abdominal pain upper ([1]; 20 μg/kg/week (n = 11)): 1 (9.1) | Treatment-related: Dizziness ([1]; 20 μg/kg/week (n = 11)): 0 | Treatment-related: Injection site reaction ([1]; 20 μg/kg/week (n = 11)): 1 (9.1) | Treatment-related: Overdose ([1]; 20 μg/kg/week (n = 11)): 0 | Treatment-related: Sleep terror ([1]; 20 μg/kg/week (n = 11)): 0 | Treatment-related: Urticaria ([1]; 20 μg/kg/week (n = 11)): 0 | Achondroplasia-Related TEAE ([1]; 50 μg/kg/week (n = 10)): 5 (50.0) | Serious TEAE ([1]; 50 μg/kg/week (n = 10)): 1 (10.0) | Subject with Treatment-Emergent Adverse Events (TEAE) ([1]; 50 μg/kg/week (n = 10)): 10 (100.0) | Subjects with at Least One Treatment-Related TEAE ([1]; 50 μg/kg/week (n = 10)): 3 (30.0) | TEAE Grade 1 ([1]; 50 μg/kg/week (n = 10)): 10 (100.0) | TEAE Grade 2 ([1]; 50 μg/kg/week (n = 10)): 3 (30.0) | Treatment-Related TEAE ([1]; 50 μg/kg/week (n = 10)): 3 (30.0) | Treatment-related: Abdominal pain upper ([1]; 50 μg/kg/week (n = 10)): 0 | Treatment-related: Dizziness ([1]; 50 μg/kg/week (n = 10)): 0 | Treatment-related: Injection site reaction ([1]; 50 μg/kg/week (n = 10)): 3 (30.0) | Treatment-related: Overdose ([1]; 50 μg/kg/week (n = 10)): 0 | Treatment-related: Sleep terror ([1]; 50 μg/kg/week (n = 10)): 0 | Treatment-related: Urticaria ([1]; 50 μg/kg/week (n = 10)): 0 | Achondroplasia-Related TEAE ([1]; 100 μg/kg/week (n = 11)): 1 (9.1) | Serious TEAE ([1]; 100 μg/kg/week (n = 11)): 0 | Subject with Treatment-Emergent Adverse Events (TEAE) ([1]; 100 μg/kg/week (n = 11)): 10 (90.9) | Subjects with at Least One Treatment-Related TEAE ([1]; 100 μg/kg/week (n = 11)): 2 (18.2) | TEAE Grade 1 ([1]; 100 μg/kg/week (n = 11)): 9 (81.8) | TEAE Grade 2 ([1]; 100 μg/kg/week (n = 11)): 1 (9.1) | Treatment-Related TEAE ([1]; 100 μg/kg/week (n = 11)): 2 (18.2) | Treatment-related: Abdominal pain upper ([1]; 100 μg/kg/week (n = 11)): 0 | Treatment-related: Dizziness ([1]; 100 μg/kg/week (n = 11)): 0 | Treatment-related: Injection site reaction ([1]; 100 μg/kg/week (n = 11)): 2 (18.2) | Treatment-related: Overdose ([1]; 100 μg/kg/week (n = 11)): 0 | Treatment-related: Sleep terror ([1]; 100 μg/kg/week (n = 11)): 0 | Treatment-related: Urticaria ([1]; 100 μg/kg/week (n = 11)): 0 | reporting of achondroplasia related treatment emergent adverse events ([1]; 100 μg/kg/week dose group, 60% in the placebo group): 9.1% | AEs on orthostatism [1, 4]: no AEs reported on orthostatism | serious adverse events related to the trial drug [1, 4]: no serious adverse events related to the trial drug | withdrawals or discontinuations from the trial [1, 4]: no withdrawals or discontinuations | total AEs related to trial drug or procedures ([1]; 57 patients, more than 1900 injections): 13 | severity of ISRs ([1]; all ISRs): mild | injection site reactions ([1]; among more than 1900 injections): 8 | number of injection site reactions (ISRs) [1, 5]: 11 | number of patients with ISRs [1, 5]: 8 | tolerability of injections ([1]; weekly s.c. injections): well tolerated with a low frequency of injection site reactions | SF-10 Physical Summary Score, Wk 52 (S.E) ([2]; 100 μg/kg (SC) weekly, week 52): 40.70 (6.87) | SF-10 Physical Summary Score, Change from Baseline ([2]; 100 μg/kg (SC) weekly, week 52, placebo −3.04 (3.82)): +5.91 (1.65) | SF-10 PsS score ([2]; 100 μg/kg weekly, after 52 weeks of treatment): improvement trend | SF-10 PhS score compared with baseline ([2]; 100 μg/kg weekly, week 52): marked increase | SF-10 Physical Summary, treated versus placebo ([2]; 100 μg/kg/week for one year (n=19) vs placebo (n=15), p=0.002, ages 5 years and older): statistically significant improved outcome | ACEM Emotional Well-being, treated versus placebo ([2]; 100 μg/kg/week for one year vs placebo, p=0.045): statistically significant improved outcome | ACEM Daily Living Function, treated versus placebo ([2]; 100 μg/kg/week for one year vs placebo, p=0.047): statistically significant improved outcome | tolerability, adverse clinical signs ([3]; Fgfr3^Y367C/+ pups, 15 days of treatment): well tolerated, and no adverse clinical signs were observed | Number of mice surviving to day 15 ([3]; Fgfr3^Y367C/+ pups, 5.6 mg/kg/day s.c., 15 days from day 1 after birth, 14 mice included): 12 | Number of mice surviving to day 15 ([3]; Fgfr3^Y367C/+ pups, […] third day s.c., 13 mice included): 11 | survival of pups compared with untreated pups ([3]; either dose level, P<0.05, Log-rank (Mantel-Cox) test, untreated = vehicle treated and historic survival combined): significantly improved survival | registered incidence of maternal infanticide ([3]; treated groups): marked reduction
